T1: OPG (also referred to as TRANCE, RANKL), full-length, expressed from pRK5 on transiently transfected 293 cells (UniProt O14788 1-317, limits assumed)
T1 construct: whole, on cells
T1 sequence (looked up): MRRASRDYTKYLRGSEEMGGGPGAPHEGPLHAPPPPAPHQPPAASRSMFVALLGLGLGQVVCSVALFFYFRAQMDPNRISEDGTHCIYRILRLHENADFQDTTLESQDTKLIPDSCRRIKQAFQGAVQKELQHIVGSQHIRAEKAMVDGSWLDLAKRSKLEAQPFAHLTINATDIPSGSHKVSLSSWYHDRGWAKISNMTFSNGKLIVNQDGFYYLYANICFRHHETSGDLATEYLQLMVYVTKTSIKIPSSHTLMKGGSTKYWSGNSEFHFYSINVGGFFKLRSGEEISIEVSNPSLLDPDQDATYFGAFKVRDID

T2: Fc-tagged ectodomain of TNFR1 (UniProt P19438 30-211, limits assumed)
T2 construct: extracellular domain; Control immunoadhesin; also called Fc-tagged TNFR1; not shown: Fc tag
T2 sequence (looked up): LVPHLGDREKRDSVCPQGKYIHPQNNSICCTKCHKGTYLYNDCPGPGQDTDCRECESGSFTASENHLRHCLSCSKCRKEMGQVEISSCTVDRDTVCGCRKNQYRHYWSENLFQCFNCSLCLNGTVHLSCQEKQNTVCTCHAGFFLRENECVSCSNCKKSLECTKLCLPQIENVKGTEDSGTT

B1: recombinant Fc-tagged DcR3 (expressed as described in Example 7, purified by Protein A chromatography) (Fc fusion)
chain: VAETPTYPWRDAETGERLVCAQCPPGTFVQRPCRRDSPTTCGPCPPRHYTQFWNYLERCRYCNVLCGEREEEARACHATHNRACRCRTGFFAHAGFCLEHASCPPGAGVIAPGTPSQNTQCQPCPPGTFSASSSSSEQCQPHRNCTALGLALNVPGSSSHDTLCTSCTGFPLSTRVPGAEECERAVIDFVAFQDISIKRLQRLLQALEAPEGWGPTPRAGRAALQLKLRRRLTELLGAQDGALLVRLLQALRVARMPGLERSVRERFLPVH
modifications: biotinylated in the FACS assay (sites not given)
notes: also called biotinylated Fc-tagged DcR3; DcR3-IgG; not shown: Fc tag (Fc region of IgG)
B2: full-length Apo-3 ligand (also referred to as TWEAK) expressed from pRK5 on transiently transfected 293 cells (ligand, UniProt O43508 1-249, looked up)
chain: MAARRSQRRRGRRGEPGTALLVPLALGLGLALACLGLLLAVVSLGSRASLSAQEPAQEELVAEEDQDPSELNPQTEESQDPAPFLNRLVRPRRSAPKGRKTRARRAIAAHYEVHPRPGQDGAQAGVDGTVSGWEEARINSSSPLRYNRQIGEFIVTRAGLYYLYCQVHFDEGKAVYLKLDLLVDGVLALRCLEEFSATAASSLGPQLRLCQVSGLLALRPGSSLRIRTLPWAHLKAAPFLTYFGLFQVH
notes: whole, on cells
B3: purified, soluble Fas ligand (Alexis Biochemicals) (ligand, UniProt P48023 103-281, looked up)
chain: QLFHLQKELAELRESTSQMHTASSLEKQIGHPSPPPEKKELRKVAHLTGKSNSRSMPLEWEDTYGIVLLSGVKYKKGGLVINETGLYFVYSKVYFRGQSCNNLPLSHKVYMRNSKYPQDLVMMEGKMMSYCTTGQMWARSSYLGAVFNLTSADHLYVNVSELSLVNFEESQTFFGLYKL
notes: Commercial soluble form

Tests used:
[1] = target: Fas expressed on human HeLa S3 cells (human) (UniProt P25445); experiment: cell-based or functional assay
Chain of Fas expressed on human HeLa S3 cells (human) (P25445 26-335): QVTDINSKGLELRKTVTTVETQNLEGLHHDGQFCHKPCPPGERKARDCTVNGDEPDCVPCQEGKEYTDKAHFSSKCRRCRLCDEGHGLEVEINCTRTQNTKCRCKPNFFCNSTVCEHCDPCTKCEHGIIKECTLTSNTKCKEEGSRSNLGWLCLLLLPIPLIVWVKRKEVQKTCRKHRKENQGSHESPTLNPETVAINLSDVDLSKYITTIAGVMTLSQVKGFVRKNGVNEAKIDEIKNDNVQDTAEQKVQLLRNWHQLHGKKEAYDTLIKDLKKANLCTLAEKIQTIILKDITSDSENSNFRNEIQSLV

[2] = target: T1, OPG (also referred to as TRANCE, …); experiment: FACS, biotinylated Fc-tagged DcR3 on transiently transfected 293 cells
From the text: (§1) Human 293 cells (ATCC CRL 1573) were transiently transfected with empty pRK5 vector (see Example 5) or pRK5 encoding full-length TNF-alpha [Pennica et al., Nature, 312:724-729 (1984)], Fas ligand [Suda et al., Cell, 75:1169-1178 (1993)], LIGHT [Mauri et al., Immunity, 8:21 (1998)], Apo-2 ligand [[WO 97/25428 published Jul. 17, 1997)], Apo-3 ligand (also referred to as TWEAK) [Marsters et al., Current Biology, 8:525 (1998); Chicheportiche et al., J. Biol. Chem., 272:32401 (1997)], or […] (also referred to as TRANCE, RANKL) [Wong et al., J. Biol. Chem., 272:25190 (1997); Anderson et al., Nature, 390:175 (1997); Lacey et al., Cell, 93:165 (1998)].

[3] = target: B1; experiment: as above
From the text: as §1

[4] = target: T2, Fc-tagged ectodomain of TNFR1; experiment: co-immunoprecipitation with protein A-sepharose, anti-Fas ligand immunoblot
Procedure: Precipitates were resolved by SDS polyacrylamide gel electrophoresis (4-20% gradient) under reducing conditions (25 mM dithiothreitol), and visualized by immunoblot, followed by enhanced chemiluminescence detection (Amersham) with rabbit polyclonal anti-Fas ligand antibody (Oncogene Research Products) at 2 microgram/ml.

## full-length Fas ligand expressed from pRK5 on transiently transfected cells (from UniProt P48023 1-281)
[1]
  apoptosis of transfected HeLa S3 cells (annexin binding by FACS): 25%

## B1
[2]
  binding result: no binding

## B2
[3]
  binding result: no binding

## B3
[4]
  binding result: no binding

Reference: patent US20020065210A1 (Genentech, published 2002)
